Measured values published in patent US20250122303A1 (HUMMINGBIRD BIOSCIENCE PTE, published 2025).
Numbering of substitutions follows the chain as printed.

Experiments:
human EGFR = target: T1, human EGFR (human, UniProt P00533 25-645); assay: ELISA; plate coated with target polypeptide, absorbance 450 nm
T1 construct: also called human HER1 (EGFR) (Sino Biological Inc.)
Experimental: (§1) The antibodies were analysed for their ability to bind to human HER3 polypeptide as well as human HER1 (EGFR) and human HER2 (Sino Biological Inc., China).
(§2) ELISAs were carried out according to standard protocols. Plates were coated with 0.1 μg/ml of target polypeptide in phosphate-buffered saline (PBS) for 16 h at 4° C. After blocking for 1 h with 1% BSA in Tris buffer saline (TBS) at room temperature, the anti-HER3 antibody was serially diluted with the highest concentration being 10 μg/ml, and added to the plate. Post 1 h incubation at room temperature, plates were washed three times with TBS containing 0.05% Tween 20 (TBS-T) and were then incubated with a HRP-conjugated anti-His antibody (Life Technologies, Inc., USA) for 1 h at room temperature. After washing, plates were developed with colorimetric detection substrate 3,3′,5,5′-tetramethylbenzidine (Turbo-TMB; Pierce, USA) for 10 min. The reaction was stopped with 2M H₂SO₄, and OD was measured at 450 nm.

human HER2 = target: T2, human HER2 (human, UniProt P04626 23-652); assay: as above
T2 construct: also called human HER2 (Sino Biological Inc.)
Experimental: as §1, §2

FcRn = target: T3, FcRn (human, UniProt P55899); assay: Bio-Layer Interferometry (determined as described in Example 7)
T3 construct: recombinant; also called human FcRn; gene FCGRT (so in the source)

FcgRIIA (H167) = target: T4, FcgRIIA (H167) (human, UniProt P12318); assay: as above
T4 construct: recombinant; also called CD32A; hFcγRIIa167H
T4 sequence (receptor, looked up): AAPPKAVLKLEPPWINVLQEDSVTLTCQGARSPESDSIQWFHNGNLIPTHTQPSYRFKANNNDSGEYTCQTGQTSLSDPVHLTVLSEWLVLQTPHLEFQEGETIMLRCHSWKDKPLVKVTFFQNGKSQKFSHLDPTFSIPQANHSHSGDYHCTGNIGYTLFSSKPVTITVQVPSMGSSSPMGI

FcgRIIA (R167) = target: T5, FcgRIIA (R167) (human, UniProt P12318); assay: as above
T5 construct: recombinant; also called CD32A; hFcγRIIa167R
T5 sequence (receptor, looked up): T4 sequence (receptor, looked up) with H132R

[1] = target: T6, His-tagged FcγRIIIa (V158) (human, UniProt P08637 17-208); assay: as above
T6 construct: not shown: His tag

B1: 10D1F.FcA (anti-HER3 clone 10D1_c89 IgG1) (antibody)
heavy: not shown
light: DIQMTQSPSSVSASVGDRVTITCKASQIVGSNVAWYQQKPGKAPEPLIYSASYLYSGVPSRFSGSGSGTDFTLTISSLQPEDFATYYCQQYSSHPLTFGQGTKLEIKRTVAAPSVFIFPPSDEQLKSGTASVVCLLNNFYPREAKVQWKVDNALQSGNSQESVTEQDSKDSTYSLSSTLTLSKADYEKHKVYACEVTHQGLSSPVTKSFNRGEC
notes: also called 10D1F.A; HMBD-001
- binding result (human EGFR): no binding
- binding result (human HER2): no binding
- Kd (FcRn): 47.6 nM
- Kd (FcgRIIA (H167)): 1800 nM
- Kd (FcgRIIA (R167)): 976 nM
- Kd [1]: 986 nM
